The results in this text go back to patent US20130084298A1 (ACADEMIA SINICA, published 2013).

The experiment addresses T1, human clathrin heavy chain (CHC) (human, UniProt Q00610 2-1675).
T1 construct: Endogenous ~190 kDa protein of human cancer cell lines (MIA PaCa-2 and others); No recombinant construct was used; also called CLTC gene product
Briefly: hybridoma mAb, target identification.

T1 sequence (Q00610 2-1675 limits assumed): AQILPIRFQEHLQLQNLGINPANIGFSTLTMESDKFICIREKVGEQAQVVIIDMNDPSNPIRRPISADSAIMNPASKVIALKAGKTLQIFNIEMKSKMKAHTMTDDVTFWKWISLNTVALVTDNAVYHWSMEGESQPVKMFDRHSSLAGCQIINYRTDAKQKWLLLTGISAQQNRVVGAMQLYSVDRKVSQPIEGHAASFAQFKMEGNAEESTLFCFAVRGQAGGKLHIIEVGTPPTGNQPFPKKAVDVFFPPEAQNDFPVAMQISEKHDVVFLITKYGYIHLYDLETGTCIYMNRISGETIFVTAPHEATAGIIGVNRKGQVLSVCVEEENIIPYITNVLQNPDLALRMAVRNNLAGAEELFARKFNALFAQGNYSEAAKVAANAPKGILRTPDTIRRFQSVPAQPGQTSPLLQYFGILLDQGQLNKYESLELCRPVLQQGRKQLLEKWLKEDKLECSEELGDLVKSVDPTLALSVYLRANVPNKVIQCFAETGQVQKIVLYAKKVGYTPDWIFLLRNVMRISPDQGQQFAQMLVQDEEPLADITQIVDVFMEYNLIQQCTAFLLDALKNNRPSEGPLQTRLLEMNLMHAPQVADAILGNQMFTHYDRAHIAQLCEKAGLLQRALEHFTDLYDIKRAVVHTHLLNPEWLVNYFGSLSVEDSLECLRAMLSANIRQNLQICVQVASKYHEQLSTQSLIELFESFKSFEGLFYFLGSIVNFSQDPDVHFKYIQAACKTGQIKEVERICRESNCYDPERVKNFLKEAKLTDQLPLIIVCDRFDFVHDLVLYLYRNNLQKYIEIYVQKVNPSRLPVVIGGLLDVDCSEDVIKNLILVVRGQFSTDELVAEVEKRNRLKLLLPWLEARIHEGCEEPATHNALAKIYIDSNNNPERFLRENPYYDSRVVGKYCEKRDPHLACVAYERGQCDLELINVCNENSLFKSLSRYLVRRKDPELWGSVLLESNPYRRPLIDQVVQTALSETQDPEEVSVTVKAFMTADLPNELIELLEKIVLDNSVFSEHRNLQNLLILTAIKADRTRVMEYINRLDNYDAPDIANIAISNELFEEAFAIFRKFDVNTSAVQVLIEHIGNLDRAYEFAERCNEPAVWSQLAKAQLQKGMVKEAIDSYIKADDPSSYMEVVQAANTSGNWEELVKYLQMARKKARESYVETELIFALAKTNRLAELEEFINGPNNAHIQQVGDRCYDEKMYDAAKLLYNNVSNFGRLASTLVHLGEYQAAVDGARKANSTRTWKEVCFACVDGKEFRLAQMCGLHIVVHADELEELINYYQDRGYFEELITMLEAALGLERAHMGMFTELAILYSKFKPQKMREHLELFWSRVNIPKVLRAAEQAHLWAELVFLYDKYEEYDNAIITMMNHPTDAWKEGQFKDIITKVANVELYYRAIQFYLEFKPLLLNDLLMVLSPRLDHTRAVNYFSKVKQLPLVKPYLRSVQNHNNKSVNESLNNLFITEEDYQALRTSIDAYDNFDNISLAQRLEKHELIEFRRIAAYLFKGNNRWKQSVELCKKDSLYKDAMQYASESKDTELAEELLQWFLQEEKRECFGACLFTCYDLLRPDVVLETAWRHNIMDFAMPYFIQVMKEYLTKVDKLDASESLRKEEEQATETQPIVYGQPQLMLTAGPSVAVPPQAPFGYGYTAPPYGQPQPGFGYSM

B1: Pa65-2 (antibody, V domains shown)
VH: EVKLVESGGGLVKPGGSLNISCAASGFTFSNYVMSWVRQTPEKRLEWVATISSGDNYMYYPDSVKGRFTISSDNAKNTLFLQMSSLRSEDTALYYCARHFDNYEGNSMDYWGQGTSVTVSS
VL: DIVLTQSPATLSVTPGDSVSLSCRASQSIRSNLHWYQQKSHESPRLLIKYASQSISGIPSRFSGSGSGTDFILSINSVATEDFGVYFCQQSNSWPLTFGAGTKLELKR
notes: also called Pa65-2 mAb; anti-CHC monoclonal antibody
Take B1: the binding result is on record as “binds”.
